The text below walks through data of patent publication US20130004493A1.

Test [1] has as its target Focal adhesion kinase (FAK), human (human) (UniProt Q05397). Put plainly: cell-based or functional assay.
Test [2] shares this target. Put plainly: co-immunoprecipitation, Western blot for FAK, ARPE-19 cells (figure legend). For orientation: Immunoblotting shows a protein as a band on a membrane.
The target is the same in test [3]. Briefly: co-immunoprecipitation with anti-EMP2 antibody, Western blot densitometry, ARPE-19 cells.
The target is the same in test [4]. Briefly: co-immunoprecipitation with anti-EMP2 antibody, Western blot densitometry, ARPE-19/EMP2 cells.
Test [5] shares this target. Put plainly: co-immunoprecipitation, ratio of co-immunoprecipitate to cognate immunoprecipitate, ARPE-19 cells.
For test [6] the target is unchanged. Put plainly: co-immunoprecipitation, ratio of co-immunoprecipitate to cognate immunoprecipitate, ARPE-19/EMP2 cells.
Test [7] has the same target. Put plainly: immunoprecipitation from ARPE-19 and ARPE-19/EMP2 lysates, Western blot densitometry.

Sequence of Focal adhesion kinase (FAK), human (human) (Q05397 2-1052): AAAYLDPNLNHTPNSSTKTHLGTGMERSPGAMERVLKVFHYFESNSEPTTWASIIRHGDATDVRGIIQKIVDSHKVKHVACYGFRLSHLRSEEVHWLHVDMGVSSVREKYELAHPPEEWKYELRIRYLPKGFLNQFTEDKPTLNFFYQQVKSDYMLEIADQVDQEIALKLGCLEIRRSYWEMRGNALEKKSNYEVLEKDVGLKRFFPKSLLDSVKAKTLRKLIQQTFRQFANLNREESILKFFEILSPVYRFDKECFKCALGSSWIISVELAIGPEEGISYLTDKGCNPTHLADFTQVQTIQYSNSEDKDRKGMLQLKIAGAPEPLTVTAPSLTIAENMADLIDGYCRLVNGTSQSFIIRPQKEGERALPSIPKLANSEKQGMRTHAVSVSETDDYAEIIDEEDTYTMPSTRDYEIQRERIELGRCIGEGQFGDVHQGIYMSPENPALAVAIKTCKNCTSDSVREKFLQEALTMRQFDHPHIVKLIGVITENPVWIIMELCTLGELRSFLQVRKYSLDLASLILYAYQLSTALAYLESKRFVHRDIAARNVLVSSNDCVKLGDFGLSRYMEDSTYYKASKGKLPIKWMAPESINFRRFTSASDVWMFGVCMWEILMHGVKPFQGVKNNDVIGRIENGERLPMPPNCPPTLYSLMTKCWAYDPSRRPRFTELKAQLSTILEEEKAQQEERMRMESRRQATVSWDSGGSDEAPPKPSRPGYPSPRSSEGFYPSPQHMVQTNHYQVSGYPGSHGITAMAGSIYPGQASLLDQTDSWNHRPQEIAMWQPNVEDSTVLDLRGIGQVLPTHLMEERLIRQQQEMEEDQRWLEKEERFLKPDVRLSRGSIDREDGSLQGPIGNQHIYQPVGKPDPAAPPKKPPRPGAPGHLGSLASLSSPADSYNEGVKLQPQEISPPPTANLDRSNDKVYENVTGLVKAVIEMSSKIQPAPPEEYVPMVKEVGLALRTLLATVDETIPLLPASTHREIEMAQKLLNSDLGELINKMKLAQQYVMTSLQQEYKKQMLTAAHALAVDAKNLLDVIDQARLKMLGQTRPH

Substance “Epithelial membrane protein 2 (EMP2), human (from UniProt P54851 1-167)” registered a percent of FAK at the cell surface contacting the glass slide colocalized with EMP2 (confocal microscopy, ARPE-19/EMP2 cells) in test [1] of 96%. The substance further registered a percent of FAK at the cell surface contacting the glass slide colocalized with EMP2 (confocal microscopy, ARPE-19 cells) in test [1] of 68%. The same substance had a percent of total FAK co-immunoprecipitated by EMP2 in test [2] of 25%. The level of FAK in the EMP2 immunoprecipitates was determined as 12% in test [3] and 15% in test [4]. Also, the percent of total FAK associated with EMP2 in test [5] stood at 24%; in test [6] it was 30%.

“Anti-FAK polyclonal antibody (Santa Cruz Biotechnology, clone C-20)”: the cognate immunoprecipitation efficiency in test [7] lay in the range of 50 to 60%.
